The target in assay [1] is HLA-A*68:02. Briefly: IEDB peptide-MHC binding, purified MHC/direct/fluorescence; filed as Kd, often an IC50 or EC50 that approximates it; ≥ and ≤ were set here for values at or beyond the usual limits of such assays.
Assay [2] deals with HLA-B*57:01. The assay is described as above.
The target of assay [3] is HLA-B*51:01. Described as above.
Assay [4] deals with HLA-B*39:01. The description is as above.
Assay [5] addresses HLA-B*27:03. Described as above.
In assay [6] the target is HLA-A*03:01. The description is as above.
The target in assay [7] is HLA-A*02:12. Described as above.
The target in assay [8] is HLA-A*02:03. The assay is described as above.
For assay [9], the target named is HLA-B*07:02. The assay is described as above.
The target in assay [10] is HLA-B*46:01. Described as above.
Assay [11] concerns the target HLA-B*15:01. Described as above.
Assay [12] addresses HLA-B*35:01. The description is as above.
The target of assay [13] is HLA-A*02:11. The description is as above.
For assay [14], the target named is HLA-A*69:01. Described as above.
Assay [15] has as its target HLA-A*02:19. The description is as above.
Assay [16] concerns the target HLA-A*26:01. The assay is described as above.
Assay [17] addresses HLA-B*57:01. Briefly: IEDB peptide-MHC binding, purified MHC/competitive/radioactivity; filed as Kd, often an IC50 or EC50 that approximates it; ≥ and ≤ were set here for values at or beyond the usual limits of such assays.
Assay [18] addresses HLA-B*15:17. Briefly: IEDB peptide-MHC binding, purified MHC/direct/fluorescence; filed as Kd, often an IC50 or EC50 that approximates it; ≥ and ≤ were set here for values at or beyond the usual limits of such assays.
For assay [19], the target named is HLA-B*40:01. Described as above. The note with it: source organism: Giardia intestinalis.
The target of assay [20] is HLA-A*11:01. Described as above.
In assay [21] the target is HLA-B*48:01. Described as above. The note with it: source organism: Giardia intestinalis.
The target in assay [22] is HLA-B*27:05. The assay is described as above. The note with it: source organism: Giardia intestinalis.
Assay [23] has as its target HLA-A*02:01. The assay is described as above.
Assay [24] has as its target HLA-A*31:01. Described as above. The note with it: source organism: Giardia intestinalis.
In assay [25] the target is HLA-B*58:01. The description is as above.
Assay [26] concerns the target HLA-B*08:03. Described as above.
The target of assay [27] is HLA-A*01:01. The assay is described as above.
Assay [28] addresses HLA-B*18:01. The description is as above.
Assay [29] has as its target HLA-B*58:01. In words: IEDB peptide-MHC binding, purified MHC/competitive/radioactivity; filed as Kd, often an IC50 or EC50 that approximates it; ≥ and ≤ were set here for values at or beyond the usual limits of such assays.
Assay [30] has as its target HLA-A*29:02. Briefly: IEDB peptide-MHC binding, purified MHC/direct/fluorescence; filed as Kd, often an IC50 or EC50 that approximates it; ≥ and ≤ were set here for values at or beyond the usual limits of such assays. The following applies: source organism: Giardia lamblia ATCC 50803.
Assay [31] concerns the target HLA-A*24:03. The description is as above.
Assay [32] has as its target HLA-A*02:16. The assay is described as above. The note with it: source organism: Vibrio vulnificus CMCP6.
Assay [33] has as its target HLA-A*02:06. In words: IEDB peptide-MHC binding, purified MHC/competitive/fluorescence; filed as Kd, often an IC50 or EC50 that approximates it; ≥ and ≤ were set here for values at or beyond the usual limits of such assays. The following applies: source organism: Francisella tularensis subsp. tularensis FSC198.
Assay [34] concerns the target HLA-B*15:09. In words: IEDB peptide-MHC binding, purified MHC/direct/fluorescence; filed as Kd, often an IC50 or EC50 that approximates it; ≥ and ≤ were set here for values at or beyond the usual limits of such assays. The note with it: source organism: Francisella tularensis subsp. tularensis FSC033.
Assay [35] concerns the target HLA-B*08:02. The assay is described as above. The note with it: source organism: Francisella tularensis subsp. tularensis FSC033.
[36] abbreviates: source organism: Campylobacter jejuni.
Setting [37] is: source organism: Dengue virus 2 Jamaica/1409/1983.
Setting [38] is: source organism: Giardia intestinalis.
[39] abbreviates: source organism: Giardia lamblia ATCC 50803.
Where [40] appears, read: source organism: Dengue virus 4 Philippines/H241/1956.
[41] abbreviates: source organism: Dengue virus 3 Martinique/1243/1999.
Where [42] appears, read: source organism: Vibrio vulnificus CMCP6.
[43] abbreviates: source organism: Francisella tularensis subsp. tularensis.

pKd: −log10 of the molar value. Bounds are passed on as bounds.

Broadly, the pKd is −log10 of the Kd, conventionally taken in molar units.

As for SFWFFHPPY, the pKd in assay [1] (setting [36]), in assay [2] (setting [36]), in assay [3] (setting [36]), in assay [4] (setting [36]), in assay [5] (setting [36]) and in assay [6] (setting [36]) was at most 4.70 each time. Also, the negative-log Kd (pKd) is at most 4.70 in assay [7] (setting [36]); at most 4.70 in assay [8] (setting [36]); at most 4.70 in assay [9] (setting [36]); at most 4.70 in [10] (setting [36]); 5.30 in assay [11] (setting [36]); 6.45 in [12] (setting [36]). The pKd in assay [13] (setting [36]), in assay [14] (setting [36]), in assay [15] (setting [36]) and in assay [16] (setting [36]) was at most 4.70 throughout.
As to KTRANDWDF, the pKd in [17] (setting [37]) is 7.66.
On the same count and under the same terms, under TTEDMLAVW stands 7.52.
With INTLESMMK, the pKd in assay [1] (setting [38]) was at most 4.70; in [2] (setting [38]), at most 4.70; in [18] (setting [38]), at most 4.70; in [19], at most 4.70; in assay [20] (setting [38]), 4.92; in assay [21], at most 4.70. In addition, the negative-log Kd (pKd) in assay [22], in assay [6] (setting [38]), in assay [23] (setting [38]), in assay [9] (setting [38]), in assay [10] (setting [38]) and in [11] (setting [38]) was at most 4.70 each time. In addition, the pKd in assay [24], in assay [25] (setting [38]), in assay [26] (setting [39]), in [27] (setting [38]) and in [28] (setting [38]) was at most 4.70 each time.
Take LSSRATWAKN: the pKd was 5.73 in assay [17] (setting [40]) and 6.81 in [29] (setting [40]).
Take LLIQGLKTV: the pKd in assay [2] (setting [39]), in [18] (setting [39]), in assay [3] (setting [39]), in assay [4] (setting [39]), in assay [30] and in assay [5] (setting [39]) was at most 4.70 throughout. Also, the pKd in assay [6] (setting [39]) is at most 4.70; in assay [23] (setting [39]), 8.70; in assay [31] (setting [39]), at most 4.70; in assay [10] (setting [39]), at most 4.70; in assay [28] (setting [39]) it was at most 4.70; in assay [16] (setting [39]), at most 4.70.
KAWMVHRQW: the pKd is 8.90 in [17] (setting [41]) and 8.97 in assay [29] (setting [41]).
In the case of MPIAAAIGT, the pKd in assay [2] (setting [42]), in [5] (setting [42]), in assay [6] (setting [42]), in [23] (setting [42]), in assay [7] (setting [42]) and in [31] (setting [42]) was at most 4.70 in each case. In addition, the pKd in assay [8] (setting [42]) was at most 4.70; in assay [9] (setting [42]), 6.00; in assay [10] (setting [42]), at most 4.70; in [11] (setting [42]), at most 4.70; in assay [12] (setting [42]), 8.52; in [13] (setting [42]) it was at most 4.70. Besides, the pKd in [28] (setting [42]), in [15] (setting [42]), in assay [16] (setting [42]) and in [32] was at most 4.70 each time.
With RYSNFAWYF, the pKd in assay [33], in assay [1] (setting [43]), in assay [2] (setting [43]), in assay [18] (setting [43]), in [20] (setting [43]) and in assay [23] (setting [43]) was at most 4.70 throughout. For the same sequence, the pKd in assay [34] was at most 4.70; in assay [31] (setting [43]) it was 6.44; in assay [9] (setting [43]), at most 4.70; in [11] (setting [43]), at most 4.70; in [25] (setting [43]), at most 4.70; in assay [35], at most 4.70. The pKd in [26] (source organism: Francisella tularensis subsp. tularensis FSC033), in assay [14] (setting [43]), in [27] (setting [43]) and in [28] (setting [43]) was at most 4.70 each time.
For TASGINMCTL, the pKd in [17] (setting [41]) is 5.25; in assay [29] (setting [41]) it was 6.99.
Take PPPPLQHPI: the pKd is at most 4.70 in assay [2] (setting [39]); at most 4.70 in [18] (setting [39]); at most 5.30 in assay [3] (setting [39]); at most 4.70 in [4] (setting [39]); at most 4.70 in assay [5] (setting [39]); at most 4.70 in [6] (setting [39]). The pKd in [31] (setting [39]), in assay [10] (setting [39]), in assay [11] (setting [39]), in [28] (setting [39]) and in [16] (setting [39]) was at most 4.70 in each case.
